According to the supplement of paper PMC10065799, “High-throughput profiling of sequence recognition by tyrosine kinases and SH2 domains using bacterial peptide display” (eLife, 2023):

Assays:
SHP2-C SH2 = experiment: SH2 binding enrichment of the phosphorylated peptide, bacterial display (enrichment ratio); higher = better substrate or ligand; peptides without Tyr show the background
c-Src SH2 = experiment: as above
Grb2 SH2 = Grb2 SH2 (UniProt P62993); experiment: as above
Fyn = Fyn (UniProt P06241); experiment: phosphorylation enrichment, bacterial display (enrichment ratio); higher = better substrate or ligand; peptides without Tyr show the background
Chain of Fyn (P06241 whole entry, looked up): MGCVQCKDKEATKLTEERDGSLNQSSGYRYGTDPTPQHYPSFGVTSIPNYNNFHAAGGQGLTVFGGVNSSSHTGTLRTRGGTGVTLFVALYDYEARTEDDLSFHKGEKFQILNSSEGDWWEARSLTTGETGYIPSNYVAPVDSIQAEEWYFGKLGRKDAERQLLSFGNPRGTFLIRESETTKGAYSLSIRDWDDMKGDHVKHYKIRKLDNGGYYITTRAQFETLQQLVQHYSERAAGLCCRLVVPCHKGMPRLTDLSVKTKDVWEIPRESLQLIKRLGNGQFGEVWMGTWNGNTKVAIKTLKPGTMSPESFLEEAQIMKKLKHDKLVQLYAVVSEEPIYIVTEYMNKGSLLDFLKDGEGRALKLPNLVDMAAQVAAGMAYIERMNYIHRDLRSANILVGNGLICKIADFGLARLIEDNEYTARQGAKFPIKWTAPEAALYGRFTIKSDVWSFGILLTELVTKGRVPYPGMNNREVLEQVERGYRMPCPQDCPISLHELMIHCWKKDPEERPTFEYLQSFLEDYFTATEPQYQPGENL

c-Abl (mouse) = experiment: as above
MERTK = MERTK (UniProt Q12866); experiment: as above
EPHB2 = EPHB2 (UniProt P29323); experiment: as above
Chain of EPHB2 (P29323 whole entry, looked up): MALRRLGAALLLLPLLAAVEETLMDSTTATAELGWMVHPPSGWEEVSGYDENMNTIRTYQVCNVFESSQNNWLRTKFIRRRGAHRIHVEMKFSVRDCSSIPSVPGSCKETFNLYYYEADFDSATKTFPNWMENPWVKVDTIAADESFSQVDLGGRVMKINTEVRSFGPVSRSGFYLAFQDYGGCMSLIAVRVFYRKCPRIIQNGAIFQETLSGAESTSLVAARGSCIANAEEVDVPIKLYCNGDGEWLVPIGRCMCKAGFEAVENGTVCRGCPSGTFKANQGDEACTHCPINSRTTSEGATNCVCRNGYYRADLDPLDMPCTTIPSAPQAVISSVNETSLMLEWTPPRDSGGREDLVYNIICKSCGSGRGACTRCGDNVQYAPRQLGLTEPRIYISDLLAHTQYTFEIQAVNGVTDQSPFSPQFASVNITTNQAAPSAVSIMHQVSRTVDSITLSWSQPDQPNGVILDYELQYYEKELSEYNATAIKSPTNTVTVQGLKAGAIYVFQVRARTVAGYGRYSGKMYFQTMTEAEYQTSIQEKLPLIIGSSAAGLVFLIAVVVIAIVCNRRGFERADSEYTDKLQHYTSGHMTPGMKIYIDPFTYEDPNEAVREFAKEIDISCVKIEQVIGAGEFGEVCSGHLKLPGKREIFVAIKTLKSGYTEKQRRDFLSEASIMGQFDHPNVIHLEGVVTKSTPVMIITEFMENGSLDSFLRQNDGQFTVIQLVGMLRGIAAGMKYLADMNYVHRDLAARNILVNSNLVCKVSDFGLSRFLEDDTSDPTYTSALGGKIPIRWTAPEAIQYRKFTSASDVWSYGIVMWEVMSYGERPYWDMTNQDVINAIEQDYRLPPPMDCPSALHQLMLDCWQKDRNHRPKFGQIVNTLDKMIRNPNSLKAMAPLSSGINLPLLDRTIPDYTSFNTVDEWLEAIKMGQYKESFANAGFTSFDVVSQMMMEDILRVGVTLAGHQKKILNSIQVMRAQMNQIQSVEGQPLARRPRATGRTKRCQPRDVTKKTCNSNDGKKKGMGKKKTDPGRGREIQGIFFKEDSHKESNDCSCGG

FGFR1 = FGFR1 (UniProt P11362); experiment: as above
Chain of FGFR1 (P11362 whole entry, looked up): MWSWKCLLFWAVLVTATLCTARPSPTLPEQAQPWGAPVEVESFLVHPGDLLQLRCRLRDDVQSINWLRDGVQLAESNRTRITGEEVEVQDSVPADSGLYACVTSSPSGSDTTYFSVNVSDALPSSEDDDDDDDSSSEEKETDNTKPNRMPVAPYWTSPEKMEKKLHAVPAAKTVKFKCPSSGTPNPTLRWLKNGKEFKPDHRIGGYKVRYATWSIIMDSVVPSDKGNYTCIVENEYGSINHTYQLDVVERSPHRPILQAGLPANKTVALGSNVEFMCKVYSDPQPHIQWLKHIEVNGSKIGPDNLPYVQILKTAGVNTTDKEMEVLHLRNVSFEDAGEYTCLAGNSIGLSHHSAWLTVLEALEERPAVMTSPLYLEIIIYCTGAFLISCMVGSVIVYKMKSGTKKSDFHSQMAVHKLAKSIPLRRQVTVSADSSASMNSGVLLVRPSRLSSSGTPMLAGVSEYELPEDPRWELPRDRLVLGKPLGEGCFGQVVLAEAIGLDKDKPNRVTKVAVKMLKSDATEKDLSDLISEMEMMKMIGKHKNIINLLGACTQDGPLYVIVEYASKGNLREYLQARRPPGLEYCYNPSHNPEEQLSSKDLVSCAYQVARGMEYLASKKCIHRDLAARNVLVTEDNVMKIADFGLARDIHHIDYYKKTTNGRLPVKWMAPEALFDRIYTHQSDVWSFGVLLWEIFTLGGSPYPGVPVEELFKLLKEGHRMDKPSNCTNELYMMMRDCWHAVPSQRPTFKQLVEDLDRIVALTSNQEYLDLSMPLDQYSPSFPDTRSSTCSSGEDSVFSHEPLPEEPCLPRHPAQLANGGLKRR

Jak2 = Jak2 (UniProt O60674); experiment: as above
Chain of Jak2 (O60674 whole entry, looked up): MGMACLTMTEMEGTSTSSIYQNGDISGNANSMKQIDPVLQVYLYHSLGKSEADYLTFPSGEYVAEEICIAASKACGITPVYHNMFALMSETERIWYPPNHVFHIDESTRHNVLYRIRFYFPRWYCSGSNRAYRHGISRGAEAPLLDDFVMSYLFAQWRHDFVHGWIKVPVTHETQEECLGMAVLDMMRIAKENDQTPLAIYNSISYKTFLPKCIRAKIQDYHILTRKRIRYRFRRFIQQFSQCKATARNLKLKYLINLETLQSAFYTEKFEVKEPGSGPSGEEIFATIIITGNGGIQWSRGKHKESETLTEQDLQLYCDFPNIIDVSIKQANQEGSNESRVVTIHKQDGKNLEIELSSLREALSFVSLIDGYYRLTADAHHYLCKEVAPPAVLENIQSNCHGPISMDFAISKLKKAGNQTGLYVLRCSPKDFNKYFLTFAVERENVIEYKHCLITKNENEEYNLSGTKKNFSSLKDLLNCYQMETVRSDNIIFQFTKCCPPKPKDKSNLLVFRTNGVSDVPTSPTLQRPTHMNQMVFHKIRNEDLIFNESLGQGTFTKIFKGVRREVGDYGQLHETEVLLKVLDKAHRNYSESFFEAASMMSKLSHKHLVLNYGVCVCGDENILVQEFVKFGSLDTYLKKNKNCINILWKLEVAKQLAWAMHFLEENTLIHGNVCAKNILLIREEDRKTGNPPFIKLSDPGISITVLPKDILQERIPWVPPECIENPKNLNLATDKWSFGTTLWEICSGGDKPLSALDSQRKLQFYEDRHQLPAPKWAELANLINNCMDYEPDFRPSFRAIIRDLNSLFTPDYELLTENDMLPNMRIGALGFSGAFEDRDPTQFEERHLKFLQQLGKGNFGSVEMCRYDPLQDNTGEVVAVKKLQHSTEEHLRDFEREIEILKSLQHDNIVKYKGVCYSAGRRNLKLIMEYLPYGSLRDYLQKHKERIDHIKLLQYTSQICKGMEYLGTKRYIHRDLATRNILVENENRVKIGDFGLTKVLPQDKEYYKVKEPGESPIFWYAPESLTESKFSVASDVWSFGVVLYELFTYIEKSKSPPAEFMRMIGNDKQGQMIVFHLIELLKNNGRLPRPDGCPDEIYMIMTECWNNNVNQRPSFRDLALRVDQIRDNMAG

FGFR3 = FGFR3 (UniProt P22607); experiment: as above
AncSZ = experiment: as above
EPHB1 = EPHB1 (UniProt P54762); experiment: as above
Fer (mouse) = experiment: as above
Fes = Fes (UniProt P07332); experiment: as above
Chain of Fes (P07332 whole entry, looked up): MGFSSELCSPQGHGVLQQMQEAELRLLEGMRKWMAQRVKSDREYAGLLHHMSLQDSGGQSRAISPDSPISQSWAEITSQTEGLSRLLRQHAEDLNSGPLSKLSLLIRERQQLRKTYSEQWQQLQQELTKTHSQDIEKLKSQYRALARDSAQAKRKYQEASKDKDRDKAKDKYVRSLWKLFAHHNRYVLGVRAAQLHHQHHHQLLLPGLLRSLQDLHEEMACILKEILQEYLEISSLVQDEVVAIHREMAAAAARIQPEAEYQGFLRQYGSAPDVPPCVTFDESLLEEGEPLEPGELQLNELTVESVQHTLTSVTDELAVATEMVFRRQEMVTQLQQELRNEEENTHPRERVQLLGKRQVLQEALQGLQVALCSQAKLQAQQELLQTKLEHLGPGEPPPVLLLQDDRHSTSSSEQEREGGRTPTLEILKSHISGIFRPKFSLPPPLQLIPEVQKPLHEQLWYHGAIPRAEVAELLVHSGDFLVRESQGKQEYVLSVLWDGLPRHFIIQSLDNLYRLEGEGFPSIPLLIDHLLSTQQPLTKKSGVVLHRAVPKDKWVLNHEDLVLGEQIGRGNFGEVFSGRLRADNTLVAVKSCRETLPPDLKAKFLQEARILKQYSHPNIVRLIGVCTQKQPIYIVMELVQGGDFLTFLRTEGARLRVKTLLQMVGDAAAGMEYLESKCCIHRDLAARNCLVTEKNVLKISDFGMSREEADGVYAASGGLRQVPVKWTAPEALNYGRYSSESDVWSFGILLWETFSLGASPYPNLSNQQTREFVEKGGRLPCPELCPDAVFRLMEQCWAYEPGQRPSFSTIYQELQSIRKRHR

Hck = Hck (UniProt P08631); experiment: as above
Chain of Hck (P08631 whole entry, looked up): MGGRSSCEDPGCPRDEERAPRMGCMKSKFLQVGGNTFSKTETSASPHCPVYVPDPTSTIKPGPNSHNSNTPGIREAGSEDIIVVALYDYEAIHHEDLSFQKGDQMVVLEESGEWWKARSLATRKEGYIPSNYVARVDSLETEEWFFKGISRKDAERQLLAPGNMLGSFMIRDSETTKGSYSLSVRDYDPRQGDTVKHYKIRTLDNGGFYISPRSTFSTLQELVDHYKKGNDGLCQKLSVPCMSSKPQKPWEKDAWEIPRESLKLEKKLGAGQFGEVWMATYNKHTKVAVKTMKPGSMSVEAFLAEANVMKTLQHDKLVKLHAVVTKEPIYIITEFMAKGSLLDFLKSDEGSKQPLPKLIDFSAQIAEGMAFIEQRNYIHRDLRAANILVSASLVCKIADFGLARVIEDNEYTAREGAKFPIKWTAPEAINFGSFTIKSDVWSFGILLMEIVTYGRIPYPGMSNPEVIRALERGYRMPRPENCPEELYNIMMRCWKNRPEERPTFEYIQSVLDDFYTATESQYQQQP

c-Src = experiment: as above
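Throughout, for SH2 binding enrichment of the phosphorylated peptide, bacterial display: peptide library displayed on the E. coli surface as eCPX fusions, selected cells deep-sequenced, score is each peptide's frequency after selection divided by its frequency in the input.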
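Throughout, for phosphorylation enrichment, bacterial display: 11-residue human phosphosite peptides and single-mutation variants displayed on the E. coli surface, counted by deep sequencing, each peptide's frequency after selection divided by its frequency in the unselected input library; frequency after pTyr selection over input frequency; kinase dosed for 20-30% of maximal phosphorylation in three min.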

Row | SH2 binding enrichment (SHP2-C SH2) | SH2 binding enrichment (c-Src SH2) | SH2 binding enrichment (Grb2 SH2) | Sequence | phosphorylation enrichment (Fyn) | phosphorylation enrichment (c-Abl (mouse)) | phosphorylation enrichment (MERTK) | phosphorylation enrichment (EPHB2) | phosphorylation enrichment (FGFR1) | phosphorylation enrichment (Jak2) | phosphorylation enrichment (FGFR3) | phosphorylation enrichment (AncSZ) | phosphorylation enrichment (EPHB1) | phosphorylation enrichment (Fer (mouse)) | phosphorylation enrichment (Fes) | phosphorylation enrichment (Hck) | phosphorylation enrichment (c-Src)
1 | 0.663 | 0.519 | 1.15 | RKETFYILSCR [GUCY2C_Y681_T682I] | 0.373 | 1.1 | 0.525 | 0.474 | 0.553 | 0.953 | 0.917 | 1.44 | 0.546 | 0.665 | 1.59 | 0.355 | 0.448
2 | 0.762 | 1.1 | 0.83 | LGGAMYYLEAD [PKHD1_Y452_E457D] | 1.7 | 0.956 | 1.62 | 0.672 | 1.36 | 1.19 | 1.6 | 1.39 | 0.839 | 0.664 | 1.48 | 1.08 | 1.86
3 | 0.899 | 0.746 | 0.976 | PSRKDYETYQS [CTNND2_Y1154_P1159S] | 0.543 | 0.729 | 0.474 | 1.03 | 0.539 | 0.94 | 0.704 | 0.875 | 0.827 | 0.55 | 1.17 | 0.764 | 0.948
4 | 0.661 | 0.458 | 0.834 | DPLLTHRFPPK [LMNA_Y481_Y481H] | 0.411 | 0.395 | 0.421 | 0.242 | 0.459 | 0.571 | 0.43 | 0.434 | 0.288 | 0.36 | 0.521 | 0.381 | 0.406
5 | 0.835 | 0.663 | 0.828 | LFPANYVAPMT [GRAP2_Y324] | 0.446 | 0.713 | 0.551 | 1.31 | 0.535 | 0.649 | 0.617 | 0.827 | 3.55 | 0.418 | 0.91 | 0.551 | 0.397
6 | 0.512 | 0.533 | 0.835 | RNYGTYTAGLS [RHBDD1_Y264_D262G] | 2.18 | 0.629 | 0.55 | 3.23 | 0.546 | 0.74 | 0.533 | 0.781 | 0.804 | 0.519 | 0.748 | 2.76 | 1.94
7 | 0.709 | 0.352 | 0.537 | NQELIYEGQRL [TBK1_Y354_R357Q] | 7.4 | 2.65 | 1.52 | 1.11 | 0.628 | 0.956 | 0.739 | 1.71 | 1 | 11.6 | 1.42 | 7.73 | 6.85
8 | 7.62 | 3.42 | 0.766 | SSSNPYSTVTM [ACTN2_Y599] | 0.976 | 0.768 | 0.521 | 0.389 | 0.543 | 0.599 | 0.486 | 0.62 | 0.461 | 10.9 | 0.751 | 0.995 | 1.9
9 | 0.786 | 0.613 | 1.01 | SYKNKYGMVAQ [APOB_Y276] | 0.367 | 0.562 | 0.335 | 0.333 | 0.385 | 0.483 | 0.385 | 0.555 | 0.333 | 0.398 | 0.674 | 0.442 | 0.569
10 | 1.46 | 0.445 | 0.785 | FLGEEYVKAVG [TF_Y674_YF] | 0.373 | 0.598 | 0.412 | 0.453 | 0.453 | 0.853 | 0.582 | 0.842 | 0.489 | 0.58 | 0.879 | 0.405 | 0.404
11 | 0.587 | 0.663 | 1.09 | PATINYPFEKG [NDUFS8_Y84] | 1.04 | 0.491 | 0.556 | 0.218 | 0.521 | 0.776 | 0.565 | 0.88 | 0.65 | 0.595 | 1.18 | 0.342 | 0.674
12 | 0.771 | 0.568 | 0.777 | VNYQPYRKHKY [TEX37_Y28_D24N] | 0.352 | 0.688 | 0.351 | 0.444 | 0.419 | 0.409 | 0.501 | 0.578 | 0.367 | 0.41 | 0.498 | 0.451 | 0.537
13 | 0.563 | 0.485 | 0.777 | GSERRYTREGG [PTPRN2_Y139_S140T] | 0.319 | 0.489 | 0.382 | 0.347 | 0.458 | 0.463 | 0.407 | 0.448 | 0.345 | 0.351 | 0.583 | 0.415 | 0.482
14 | 0.658 | 0.406 | 0.672 | HTLQLYRCREE [ALPK3_Y342] | 0.573 | 0.329 | 0.607 | 0.588 | 0.898 | 0.574 | 0.7 | 0.953 | 0.499 | 0.575 | 1.03 | 0.522 | 0.603
15 | 0.765 | 5.48 | 0.951 | IRQGHYESLKE [MTR_Y921_D919G] | 0.466 | 0.443 | 0.457 | 0.34 | 0.419 | 0.85 | 0.567 | 0.573 | 0.392 | 0.652 | 0.768 | 0.519 | 0.45
16 | 0.702 | 0.677 | 1.08 | IMAYFYMCDSA [CASD1_Y382_R386S] | 0.523 | 1.07 | 0.505 | 0.643 | 2.24 | 1.93 | 2.25 | 1.38 | 0.845 | 0.597 | 1.5 | 0.51 | 0.69
17 | 0.579 | 0.49 | 0.842 | RALLNYIASKF [GSTA3_Y74_I71L_YF] | 0.385 | 0.638 | 0.597 | 0.624 | 0.423 | 0.536 | 0.767 | 1.13 | 0.763 | 0.553 | 0.956 | 0.721 | 0.587
18 | 0.734 | 0.496 | 0.714 | PTTKTYFPHFA [HBA1_Y43_D48A] | 0.798 | 0.646 | 0.675 | 0.386 | 0.313 | 0.469 | 0.599 | 0.796 | 0.572 | 0.384 | 0.724 | 0.754 | 0.781
19 | 1.2 | 1.43 | 1.19 | CASQLCPRHKH [DCTN4_Y263_Y263C] | 0.366 | 0.451 | 0.358 | 0.393 | 0.33 | 0.495 | 0.332 | 0.477 | 0.305 | 0.367 | 0.533 | 0.326 | 0.312
20 | 0.814 | 0.504 | 1.07 | PPSLSYLSFEG [EXOSC3_Y143_A139P] | 0.464 | 0.702 | 0.602 | 0.448 | 0.595 | 1.36 | 0.713 | 0.756 | 0.556 | 0.451 | 0.886 | 0.517 | 1.1
21 | 0.778 | 3.86 | 0.939 | GYYDLYGGEKF [PTPN11_Y66_D61G] | 7.27 | 0.68 | 6.61 | 9.35 | 10.9 | 3.15 | 8.65 | 1.3 | 3.27 | 3.13 | 0.931 | 6.7 | 4.54
22 | 0.775 | 0.631 | 1.1 | IKKLIYVHLVI [JAGN1_Y42] | 0.496 | 0.852 | 0.569 | 0.59 | 0.604 | 0.982 | 0.842 | 1.02 | 0.669 | 0.592 | 1.32 | 0.671 | 0.424
23 | 0.797 | 0.971 | 0.927 | PVADPYDQSFE [MAPK14_Y323] | 0.828 | 2.38 | 0.894 | 0.632 | 0.941 | 2.29 | 0.896 | 1.66 | 0.695 | 0.759 | 1.86 | 0.989 | 0.982
24 | 2.01 | 3.16 | 0.887 | QLAPQYTYAQG [FLNA_Y1761] | 0.61 | 0.61 | 0.65 | 1.19 | 0.714 | 0.696 | 0.704 | 0.722 | 0.52 | 0.448 | 1.01 | 0.624 | 0.693
25 | 0.79 | 0.603 | 0.804 | HPAGNYSLSSV [ARFGAP3_Y473_Q468H] | 0.409 | 0.867 | 0.625 | 0.58 | 0.562 | 0.672 | 0.458 | 0.49 | 0.706 | 0.619 | 0.666 | 0.553 | 0.425
26 | 0.962 | 0.541 | 0.842 | RVQQIYSDSDL [MIB1_Y376] | 4.75 | 1.31 | 4.58 | 0.837 | 0.574 | 0.902 | 0.852 | 1.32 | 1.45 | 3.92 | 1.32 | 3.68 | 5.32
27 | 0.5 | 0.65 | 0.878 | NLMPAYHKCIQ [CYP21A2_Y190_Y191H] | 0.519 | 0.71 | 0.518 | 0.586 | 0.493 | 0.969 | 0.707 | 0.91 | 0.501 | 0.507 | 1.01 | 0.521 | 0.501
28 | 0.995 | 3.41 | 1.04 | RLLREYQELMN [KRT75_Y434] | 0.746 | 0.67 | 0.376 | 0.613 | 0.785 | 1.11 | 0.583 | 0.759 | 0.691 | 0.465 | 0.817 | 0.458 | 0.421
29 | 0.856 | 1.36 | 1.05 | LLREWYVQDPY [SIX3_Y225_L226V] | 0.531 | 0.674 | 0.44 | 0.675 | 0.597 | 0.798 | 0.771 | 1.18 | 0.598 | 0.566 | 1.05 | 0.328 | 0.641
